Source: the DeepSol protein solubility set

assay: soluble on expression in E. coli; label from the status in PepcDB or PDB records

| Sequence | soluble on expression in E. coli |
| --- | --- |
| MKTKIINLVVVTGMSGAGKTVAIQSFEDIGYFTIDNIPPSLVPKVIELLKHSEETDKIALVVDMRSRVFFDEINDILDQLESNEELNFKILFLDATDGELVSRYKETRRSHPLAADGRVLDGIKLERELLSPLKSLSQNVVDTTKLTPRQLRKAISEQFSSKQDQSSFRIEVLSFGFKYGLPLDADLVFDVRFLPNPYYDPTLRNLTGLDKEVYDFVMTHKESEDFYKNLNHLIKPILPGYQKEGKSVLTIAVGCTGGQHRSVAFAHRLAQDLKNDWTVNETHRDKDRRKETVNRS | not soluble |
| MKTLQDSIIFRHGAKIKGRIVQPPMLTNSGNDGYVTQDALDYYAARSQSAGMIIVEYTTVSENGGPSRSWARDREQLTIYDDKFKPGMAKLATVIKKMGIKLYYNWSIPVEKLIISLNWVSRFMHQVR | not soluble |
| MKTVKHLLQEKGHTVVAIGPDDSVFNAMQKMAADNIGALLVMKDEKLVGILTERDFSRKSYLLDKPVKDTQVKEIMTRQVAYVDLNNTNEDCMALITEMRVRHLPVLDDGKVIGLLSIGDLVKDAISQHQFVINQLERYIYDTREI | soluble |
| MKTVVFAYHDMGCLGIEALLAAGYEISAIFTHTDNPGEKAFYGSVARLAAERGIPVYAPDNVNHPLWVERIAQLSPDVIFSFYYRHLIYDEILQLAPAGAFNLHGSLLPKYRGRAPLNWVLVNGETETGVTLHRMVKRADAGAIVAQLRIAIAPDDIAITLHHKLCHAARQLLEQTLPAIKHGNILEIAQRENEATCFGRRTPDDSFLEWHKPASVLHNMVRAVADPWPGAFSYVGNQKFTVWSSRVHPHASKAQPGSVISVAPLLIACGDGALEIVTGQAGDGITMQGSQLAQTLGLVQGSRLNSQPACTARRRTRVLILGVNGFIGNHLTERLLREDHYEVYGLDIGSDAISRFLNHPHFHFVEGDISIHSEWIEYHVKKCDVVLPLVAIATPIEYTRNPLRVFELDFEENLRIIRYCVKYRKRIIFPSTSEVYGMCSDKYFDEDHSNLIVGPVNKPRWIYSVSKQLLDRVIWAYGEKEGLQFTLFRPFNWMGPRLDNLNAARIGSSRAITQLILNLVEGSPIKLIDGGKQKRCFTDIRDGIEALYRIIENAGNRCDGEIINIGNPENEASIEELGEMLLASFEKHPLRHHFPPFAGFRVVESSSYYGKGYQDVEHRKPSIRNAHRCLDWEPKIDMQETIDETLDFFLRTVDLTDKPS | soluble |
| MKTYDVVVVGAGMLGIAHAWAAARRGLSVAVVERSQRAHGATIRNFGQVLVTGQAPGVMARHARQSRELWLELAAGAGFHVRANGSLVLARSALEQDVLEEFAAARLQAEGYRAELLSGRELARLFDGRLGHHCAALRGHDDLQIYSREALPAITAYLADRFGVEFLTATLASAVREGVVQTSAGALRGRHAFVCPGHDYLTLAPELFAPLGLQVSCLQMLRVAFETRPFALDRPLLTGLSCVYYGAFSDLPTARTLRESLQRHEPDLLDNGIHLLVSPTPHGELIIGDSHRYGVDALPFNDEQVDCAMLDLAQQALGCRLRVIERWQGVYGAHGPAPFSVLPVDDQTTVAVMHSGVGMTVGLAVGENTVQARLGLEHHHHHH | not soluble |
| MKVDLFDFHLPEELIAQTPLPDRAASRLMVLDKRTGAIRHETFRNIISYLNPGDCLVLNDTRVMPARLYGEKEETGGTVEVLLLKQLDGDRWETLVKPGKRVKPGTKLTFGEGKLEAVCLDTLEHGGRVLEFSYDGLFYEVLAELGEMPLPPYIKEKLDDPERYQTVYAREIGSAAAPTAGLHFTEELLDAIREKGVHIVFITLHVGLGTFRPVQVDDVEKHDMHAEFYQMSEETAETLNRVREQGGRIIAVGTTSTRTLETIAGKHNGRFVAESGWTDIFIYPGYEFKGIDGLVTNFHLPKSTLIMLVSALAGRENILHAYQVAVKERYRFFSFGDAMLII | soluble |
| MKVDVDEKTYIITMANDITKLYEENKRNLHYSITDPLTGAYNRKYLNDRFDIFIGDYIVLIDLDNFKMINDYEGHNVGDKILCDFVSLLNKELINSTSIIRLGGDEFIVIFSSDVDKNYVYSQLEALRENFLKVFSKYKYLSFSYGVDTVKRNLKLTIVELDKKMYKNKEKNKKKFDKNLEHHHHHH | soluble |
| MKVGIVLNPHAGGGFDDLKRRVVVRVLKKLDGEFVTADKVAELLGIEAERVKVKETNTRLDTVNLVKALDGNVDVIAVFGGDGTVSDAASAKPQTPLLCIGIGTTNVSPALCPPDFDRLEEVEMRGLVVKFGGEERVAFNDVVVGSTILSTVDGKRVQVDARRYMRGEKVIATPRKFRARVEVGERVVEGVFGNIFVAMTDRRFLGKGIAGGASLSAFLGFKGVVACVSEGIVVSTYTKEDLRRVEPIVTSTISFDDEVVKIDADEVVSCDGNPLGVGRAEVAIEDGVVRVLKPFKEEE | soluble |
| MKVGSQVIINTSHMKGMKGAEATVTGAYDTTAYVVSYTPTNGGQRVDHHKWVIQEEIKLEHHHHHH | not soluble |
| MKVIMTTKVDKASMNIMNKLIENFGFKETEYVFDGNPVYKRGDVLILTTNDEMIYYDYLDREIENQLGFKPEIIAFASRHSSKQKLPALTTHVTGNWGKAMYGGKDESFAVAIPSAMKLSLLKMSELNDLGWTVCYEATHHGPTELEVPSFFIEIGSSEEEWINDRAGEIIAETIIYVLDNYEKGRSKFKVALGIGGGHYAPKQTKRALEGDLAFGHILPKYAQPVSRDVMIKALNRFGEKVEAIYVDWKGSRGETRQLAKSLAQELGLEFIKD | soluble |
| MKVKKWVTQDFPMVEESATVRECLHRMRQYQTNECIVKDREGHFRGVVNKEDLLDLDLDSSVFNKVSLPDFFVHEEDNITHALLLFLEHQEPYLPVVDEEMRLKGAVSLHDFLEALIEALAMDVPGIRFSVLLEDKPGELRKVVDALALSNINILSVITTRSGDGKREVLIKVDAVDEGTLIKLFESLGIKIESIEKEEGF | not soluble |
| MKVLEYRFAIAPMFHFIANKSMEAGLHVCDGHAKQTVQLFMNDAVSEKGKKRIGAIQYEGSNDYTAKEPCMVNWRFERALLPDGLKQDLEAITAFRRDQNEGTAINPNAQSIAFKFEALTDAAKETIEAITAVLQKHARC | not soluble |
| MKVPHVIAELVSEFSGFQHTPDFKASRSTGNFEEGSEEGTSGSHKPEEHHHKEHHGHSLYFGKHSGKKHLPPVVENDGDTHSNHSDVSGSGSSLKEKKHHGLTAHFKDLFHIGHHHHHHGEHPHSKQNSGASTPARKNSTGSECPCSKQEQCHKHSINITVGADEVPTVLATPPNEQNILHAHFIKNQSPCISRVVSSSSLKEKLHKIKRTTSSDSDTDFPEKKCSVASYRVVTH | not soluble |
| MKVRYLTSALLLAMTSGLAAAASVDIRHEYVPDRDGDEHRDRIYVSHRFDNQIGFSVEAKWNYKDGHMGNAGHETGVSYRWKATDNFSLTPGINIDASPSGASVFKYNLTGAYKINDEWDVAARIRHGYKNTDDSRYNQLNLYANRKFEWGKLGVEAEYKDIHGGEGGWKDKGHDQLIDFKGEYTKLESGVIPFFAIAAITHKGDGSEFKDEYVPRFRVGLKYNF | not soluble |
| MKVTLPDFRRAGVLVVGDVMLDRYWYGPTCRISPEAPVPVVKVDTIEERPGGAANVAMNIASLGAVARLVGLTGIDDAARALICKLSEVRVRCDFVSVPTHPTITKLRVLSRNQQLIRLDFEEGFDGVDPTPIFERIQLALPQIGALVLSDYAKGALNSVQPMIQLARKANVPVLIDPKGSDFERYRGATLLTPNLSEFEAVVGRCKNEEELVNRGMQLVADFELSALLVTRSEQGMTLLQLGKPPLHLPTQAKEVFDVTGAGDTVIGVLAAALAAGNSLEESCFLANAAAGVVVGKLGTSTVSPIELENAIRGRAETGFGVMDEQQLKIAVAQARQRGEKVVMTNGIFDILHAGHVSYLANARKLGDRLIVAVNSDASTKRLKGEKRPVNPLEQRMVVLGALEAVDWVVPFEEDTPQRLIADILPDLLVKGGDYKPHEIAGSEEVWAAGGEVKVLNFEDGVSTTNIIQSIKNGRG | not soluble |
| MKVYSKDDIVEQAKELAKMISETEEVDFFKKAEAQIHKNENVKRAIDEIKALQKQAVNLQHYGKWEALKKVEAEIDALQDKLDSIPVVQQFKSSQTYVNDLLQLVASTISNNVTDEILISTGGDVLKGETGAAVESKKGNCGC | not soluble |
| MKWRSRQLSFSSAKWYGDVIWIFDPGIIGAQIDNEGDLKKCFIQTLFHSTGSRQSIRIWWREIMLSLILRIYLDKFLPWISLSIKEVGESSVINFSLWGCLHGTRFRRWYSPFQKLSALAITKKDVISSSWRCFNGMRCN | soluble |
| MKYGIVIFPPKRIQDFANSYRKRYDSHYALIPPHITLKYPFEADEEQIKKMAKELRRIAAETPPIPIKVTKFSSFYPTSNIIYLKVEPNDVLERLHEQLHSGLFAGKPEFVFVPHITIGRDLPGAEYADVYSQLKLQDVHFEETVDRFHLLYQLENGSWTVYETFIVGGKETV | soluble |
| MKYPPSLVSLIRELSRLPGIGPKSAQRLAFHLFEQPREDIERLASALLEAKRDLHVCPICFNITDAEKCDVCADPSRDQRTICVVEEPGDVIALERSGEYRGLYHVLHGVLSPMNGVGPDKLHIKPLLPRVGQGMEVILATGTTVEGDATALYLQRLLEPLGAAISRIAYGVPVGGSLEYTDEVTLGRALTGRQTVSKPQPPQRPGDEDGADGAAVPASRLEHHHHHH | soluble |
| MKYTIEEIRQMQEGQTFDCKSILIEPKHLATIIVAMANADGGMIAVGISDKTRRIEGVNQDKEHLNDILRTPLDFCVPSVSVTTDYVPCTDAEGRDNRVLLMHIPASPRLHANQADEVFWRVGDKSRKLTFDERLQLMYDKGERYYEDSTAYDATLDDIDMDAVKAYMKRIGYGKSAMEYLQENKGFVTYKGDVPQVSAACILLFGKHPQTFFPRARVRFIKYFGTEEKVGREMNVIKDVTFDGRILEQIQKTVEYLETQVKEHSYLGEDGIFKTDREYPKFVIQEMVVNSVCHRDYSIKGTEIQIKMFDDRLVFETPGKLPGIVRTDNIRHTHFSRNPKIAEFLKAYDYVKEFGEGVDRMCRELSALGVKEPQYNLVAFIMKATVCAKVLEERQGTNHFDQKRPESDQKSDQMRIILELIKSNPNISRTELSEKTGLHDSSVKRRLKTLVDEGLIQRVGPDKGGQWKVIGSLLEHHHHHH | soluble |
| MLAFGPVPSRRLGRSLGVNNIPAKICSYACVYCQIGKTLKMEVERRKFYEPERIYNDVSAKVKSGERIDYITFVPDGEPTLDINLGKEAEMLRDFGIKLAILTNSSLIWREDVREDLMNFDLVSLKLDAVSDDIWRKVNRPHKSLSLEKILEGMLDFRKEFKGTIITETMLINIDYGEELEKIATFLKELKPDKAYIAIPTRPPAESWVKPASEVIINKAYQLFSEALGEERVEYLIGYEGNAFAFTGNVEEDLLSITAVHPMREEAVRELLRKAGASWDVVEKMIKEGKLIELEYNGKKFYMRKLGSR | not soluble |
| MLAILYDRIRPDERMLFERAEALGLPYKKVYVPALPMVLGERPKELEGVTVALERCVSQSRGLAAARYLTALGIPVVNRPEVIEACGDKWATSVALAKAGLPQPKTALATDREEALRLMEAFGYPVVLKPVIGSWGRLLAKVTDRAAAEALLEHKEVLGGFQHQLFYIQEYVEKPGRDIRVFVVGERAIAAIYRRSAHWITNTARGGQAENCPLTEEVARLSVKAAEAVGGGVVAVDLFESERGLLVNEVNHTMEFKNSVHTTGVDIPGEILKYAWSLAS | soluble |
| MLAKVLKKRGAVLRGDFVLSSGRRSSVYIDMRRLLGDESSYSVALDLLLEVGGQDLARSSAVIGVATGGLPWAAMLALRLSKPLGYVRPERKGHGTLSQVEGDPPKGRVVVVDDVATTGTSIAKSIEVLRSNGYTVGTALVLVDRGEGAGELLARMGVRLVSVATLKTILEKLGWGGE | soluble |
